# Data: patent publication US20230340152A1 (published 2023)
# T1: KO_Linker CD73 chimera (human; chicken, UniProt P21589 27-553)
# T1 construct: also called KO_292-310; linker region-swapped CD73
# T1 chain: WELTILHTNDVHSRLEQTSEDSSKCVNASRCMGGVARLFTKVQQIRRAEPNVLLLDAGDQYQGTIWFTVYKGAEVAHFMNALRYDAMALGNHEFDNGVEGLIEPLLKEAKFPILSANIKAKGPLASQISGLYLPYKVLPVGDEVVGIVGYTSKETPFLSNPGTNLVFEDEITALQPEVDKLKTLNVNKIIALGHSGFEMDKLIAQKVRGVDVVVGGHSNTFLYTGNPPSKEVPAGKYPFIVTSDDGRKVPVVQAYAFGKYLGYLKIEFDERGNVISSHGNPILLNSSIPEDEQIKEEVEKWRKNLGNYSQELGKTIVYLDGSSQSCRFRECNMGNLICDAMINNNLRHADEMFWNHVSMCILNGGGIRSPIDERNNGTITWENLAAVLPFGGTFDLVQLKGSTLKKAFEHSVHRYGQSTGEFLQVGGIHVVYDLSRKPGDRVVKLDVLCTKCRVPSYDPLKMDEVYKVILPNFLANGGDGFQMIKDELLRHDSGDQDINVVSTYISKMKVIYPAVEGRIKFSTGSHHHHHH
# T2: HDX_E1 CD73 chimera (human; chicken, UniProt P21589 27-553)
# T2 chain: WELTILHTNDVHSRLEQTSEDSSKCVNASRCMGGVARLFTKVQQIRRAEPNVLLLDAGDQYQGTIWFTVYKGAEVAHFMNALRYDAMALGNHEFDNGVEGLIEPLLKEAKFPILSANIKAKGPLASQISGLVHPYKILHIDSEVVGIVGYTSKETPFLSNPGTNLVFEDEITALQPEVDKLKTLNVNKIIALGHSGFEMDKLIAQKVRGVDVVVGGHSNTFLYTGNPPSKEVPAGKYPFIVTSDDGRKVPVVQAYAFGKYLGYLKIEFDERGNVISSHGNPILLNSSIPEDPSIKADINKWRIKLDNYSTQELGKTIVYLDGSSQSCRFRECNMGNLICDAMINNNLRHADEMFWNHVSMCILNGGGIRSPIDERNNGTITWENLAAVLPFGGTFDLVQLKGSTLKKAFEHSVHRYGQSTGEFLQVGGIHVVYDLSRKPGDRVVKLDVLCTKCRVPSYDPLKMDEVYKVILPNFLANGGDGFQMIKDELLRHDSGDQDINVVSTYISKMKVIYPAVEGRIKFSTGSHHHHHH
# T3: Human CD73 K180A, His-tagged (human, UniProt P21589 27-549)
# T3 sequence: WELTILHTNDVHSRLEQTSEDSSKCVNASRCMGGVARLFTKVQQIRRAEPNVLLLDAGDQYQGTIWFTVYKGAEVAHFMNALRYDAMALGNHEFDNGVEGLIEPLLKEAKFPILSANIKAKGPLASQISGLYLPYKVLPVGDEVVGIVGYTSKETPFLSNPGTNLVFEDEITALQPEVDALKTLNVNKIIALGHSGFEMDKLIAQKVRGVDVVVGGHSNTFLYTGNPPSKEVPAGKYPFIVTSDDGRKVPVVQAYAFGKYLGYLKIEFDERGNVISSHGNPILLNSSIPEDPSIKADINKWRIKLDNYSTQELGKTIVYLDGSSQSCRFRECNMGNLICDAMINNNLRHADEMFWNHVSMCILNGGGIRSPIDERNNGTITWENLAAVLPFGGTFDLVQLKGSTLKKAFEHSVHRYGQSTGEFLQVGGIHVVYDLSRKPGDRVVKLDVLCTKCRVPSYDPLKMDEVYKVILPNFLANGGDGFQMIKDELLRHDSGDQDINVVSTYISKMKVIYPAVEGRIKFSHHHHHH
# How the values were obtained:
# Experiment in all cases: SPR (ProteOn), CD73 variant immobilized on HTG chip
# KO_Linker CD73 chimera = biological target: T1, KO_Linker CD73 chimera
# Method: (§1) Binding of MEDI9447 to wild-type and mutant CD73 proteins was measured by surface plasmon resonance (SPR) using a ProteOn instrument (BioRad). CD73 crude cell supernatant protein samples were diluted to 3 µg/ml in PBS, 0.005% Tween-20, pH 7.4 (BioRad) and immobilized to ~400 RU on a HTG tris-NTA sensor chip (BioRad) pre-activated with 10 mM NiSO₄, 10 mM MES, pH 6.0 (BioRad). An equivalently diluted crude cell supernatant sample from non-transfected cells was included as a reference channel control. Sensorgrams were recorded by flowing two-fold dilutions of MEDI9447 prepared in PBS, 0.005% Tween-20, pH 7.4, ranging from 5 nM to 0.31 nM. […] Antibody binding was measured at a flow rate of 100 µL/min with a 3 min association phase and 20 min dissociation phase. The sensor chip surface was regenerated between each run by an 800 s injection of 300 mM EDTA, pH 8.5 (BioRad) at a flow rate of 30 µL/min. Binding kinetics were analyzed using the ProteOn data analysis software. Double referencing was performed and, unless noted otherwise, a 1:1 Langmuir binding model was utilized to fit the data. Some CD73 variants containing mutations within the amino acid region 171-188 fit poorly to a 1:1 model (i.e., Chi² values >10% of Rmax). Where noted, these variants were fit with a heterogenous antigen (2:1) model. […] Due to the assay format (antigen immobilized) and the dimeric state of CD73, KD values may be exaggerated due to avidity effects. However, it is not anticipated that this impacts ranking of MEDI9447 binding to the different CD73 variants.
# HDX_E1 CD73 chimera = biological target: T2, HDX_E1 CD73 chimera
# Method: as §1
# [1] = biological target: T3, Human CD73 K180A, His-tagged
# Method: as §1
binder,measurement,setting,value
"MEDI9447 (antibody, human IgG1, lambda, V domains shown, Human IgG1-TM (L234F, L235E, P331S), lambda light chain; also called clone 10.3 antibody; 73combo3) VH: EVQLLESGGGLVQPGGSLRLSCAASGFTFSSYAYSWVRQAPGKGLEWVSAISGSGGRTYYADSVKGRFTISRDNSKNTLYLQMNSLRAEDTAVYYCARLGYGRVDEWGRGTLVTVSS VL: QSVLTQPPSASGTPGQRVTISCSGSLSNIGRNPVNWYQQLPGTAPKLLIYLDNLRLSGVPDRFSGSKSGTSASLAISGLQSEDEADYYCATWDDSHPGWTFGGGTKLTVLG",Kd,KO_Linker CD73 chimera,4.14 pM
same,koff,KO_Linker CD73 chimera,2.31e-05 s⁻¹
same,kon,KO_Linker CD73 chimera,5.7e+06 M⁻¹ s⁻¹
same,Kd,HDX_E1 CD73 chimera,9.9 pM
same,koff,HDX_E1 CD73 chimera,2.12e-05 s⁻¹
same,kon,HDX_E1 CD73 chimera,2.15e+06 M⁻¹ s⁻¹
same,koff,[1],0.000154 s⁻¹
same,kon,[1],3.45e+06 M⁻¹ s⁻¹
